The values that follow come from the nanobody polyreactivity screen of Harvey et al. (2022).

The series can be described thus: yeast display, Sf9 membrane polyspecificity reagent, FACS + sequencing; frameworks hold sequencing errors. The essentials:
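Galactose induction of a Saccharomyces cerevisiae BJ5465 synthetic nanobody display library ran 36–48 hours. The cells were then stained for 1 hour at 4 °C with 10% biotinylated, detergent-solubilized Sf9 membrane reagent, pulled down on streptavidin microbeads and FACS-sorted into low and high (top ~1%) gates on expression and reagent-binding fluorescence. Labels for polyreactivity follow the gate of origin.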
With “QVQLVESGGGLVQAGGSLRLSCAASGRTFSYYAMGWYRQAHGKERELVAAITSSGGRTTYADSVKGRFTISRDNAKNTVYLQMNSLKPEDTAVYYCNVVRWTLKYGYWGQGTQVTVSS”, the “polyreactivity (PSR sort gate)” value is “high polyreactivity”.

As for “QVQLVESGGGLVQAGGSLRLSCAASGRTFSYYAMGWYRQAPGKEREFVAAISSTGTSTYYADSVKGRFTISRDNAKNTVYLQMNSLKPEDTAVYYCNARVATYRLHSKFYYWGQGTQVTVSS”, the “polyreactivity (PSR sort gate)” value is on record as “high polyreactivity”.

As to “QVQLVESGGGLVQAGGSLRLSCAASGRTFSYYAMGWYRQAPGKERELVAAISYSGGRTYYADSVKGRFTISRDNAKNTVYIQMNSLKPEDTAVYYCAPVKSRPQYGYGYWVQGTQVTVSS”, the “polyreactivity (PSR sort gate)” value is “high polyreactivity”.

As to “QVQLVESGGGLVQAGGSLRLSCAASGRTFSYYAMGWYRQAPGKERELVAAITSGGGRTYYADSVKGRFTISRDNAKNTVYLQMNSLKPEDTAVYYCNALSTLYNGYDYWGQGTQVTVSS”, the “polyreactivity (PSR sort gate)” value is “high polyreactivity”.

Regarding “QVQLVESGGGLVQAGGSLRLSCAASGRTFSYYAMRWYRQAPGKERELVAAITSGGSTYYADSVKGRFTISRDNAKNTVYLQMNSLKPEDTAVYYCAKYQSYGPVPFGRGYGHYYWGQGTQVTVSS”, the “polyreactivity (PSR sort gate)” value is reported as “high polyreactivity”.

Turning to “QVQLVESGGGLVQAGGSLRLSCAASGRTFSYYARGWYRQAPGKEREFVAAISSSGGSTNYADSVKGRFTISRDNAKNTVYLQMNSLKPEDTAVYYCNAGSGYTGVYLWYYWRYDYWGQGTQVTVSS”, the “polyreactivity (PSR sort gate)” value is recorded as “low polyreactivity”.

On to “QVQLVESGGGLVQAGGSLRLSCAASGRTFSYYTMGWYRQAPGKERELVARISNRGTNTYYADSVKGRFTISRDNAKNTVYLQMNSLKPEDTAVYYCAATQPYWWAYRYDYWGQGTQVTVSS”, for which the “polyreactivity (PSR sort gate)” value is given as “low polyreactivity”.

Take “QVQLVESGGGLVQAGGSLRLSCAASGRTFSYYTMGWYRQATGKERELVARISNRGTNTYYADSVKGRFTISRDNAKITVYLPMNSLKQEDTAVYYCDKFYYTSIVGYDSWGQGTQVTVSS”: the “polyreactivity (PSR sort gate)” value was “low polyreactivity”.

Turning to “QVQLVESGGGLVQAGGSLRLSCAASGRTFTAYAMGWYRQAPGKERELVARITSVDSTNYADSVKGRFTISRDNAKNTVYLHMYSLKPDDTAVYYCNATFGYPFVDYDDYWGQVTQVTVSS”, the “polyreactivity (PSR sort gate)” value is on record as “low polyreactivity”.

Take “QVQLVESGGGLVQAGGSLRLSCAASGRTFTEYAMGWYRQAPGKERELGAGIDSGSGSTYYADSVKGRFTISRDYAKNTVYLQMNSLHPEDTAVYYCAARDVWSPYDTDVDYWGQGTQVTVSS”: the “polyreactivity (PSR sort gate)” value is “low polyreactivity”.

Turning to “QVQLVESGGGLVQAGGSLRLSCAASGRTFTFNVMGWYRQAPGKERELVAVITGGDDTYYADSVKGRFTISRDNAKNTVYFQMNSLKPVDTAVYYCNAAAGATTLVRPYVEFDYWGQGTQVNVSS”, the “polyreactivity (PSR sort gate)” value is given as “low polyreactivity”.

Consider “QVQLVESGGGLVQAGGSLRLSCAASGRTFTFYAMGWYRQAPGKERELVAAISTRGGRTYYADSVKGRFTISRDNAKNTVYLQMNSLKPEDTAVYYCAARARRRYYYWGQGTQVTVSS”, for which the “polyreactivity (PSR sort gate)” value was “high polyreactivity”.

Take “QVQLVESGGGLVQAGGSLRLSCAASGRTFTFYTMGWYRQAPGKERELVARITGGGSTYYADSVKGRFTISRDNAKNTVYLQMNSLKPEDTAVYYCAAASGTKRLYRGTRGDYWGQGTQVTVSS”: the “polyreactivity (PSR sort gate)” value is recorded as “low polyreactivity”.

Turning to “QVQLVESGGGLVQAGGSLRLSCAASGRTFTGNAMGWYRQAPGKERELVAAISTSGTRTTYADSVKGRFTISRDNAKNPVYLQMTSLKPEDTAVYYCAALRKCLYRTYTYDYWGQGTQVTVSS”, the “polyreactivity (PSR sort gate)” value is listed as “high polyreactivity”.

For “QVQLVESGGGLVQAGGSLRLSCAASGRTFTGYVMGWYRQAPGKDRELVAGSSRRGGRTYYADSVKGRYTISRDNAKNTVYLQMNSLKPEDTEVYYCAAAVTSSDPYDYWGQGTQVTVSS”, the “polyreactivity (PSR sort gate)” value is “high polyreactivity”.

Consider “QVQLVESGGGLVQAGGSLRLSCAASGRTFTHNTMGWYRQAPGKERELVAAISRSGASTYYADSVKGRFTISRDNAKNTVYLQMNSLKPEDTAVYYCNAYSRPHFGYVVGTKSRHGYWGQGTQVTVSS”, for which the “polyreactivity (PSR sort gate)” value was “high polyreactivity”.

Regarding “QVQLVESGGGLVQAGGSLRLSCAASGRTFTHNVMGWYRQAPGKERELVAGISSTGGSTYYADSVKGRFTISRDNAKNTVYLQMNSLKPEDTAVYYCAVIGYHYSAISPPSQTRQGYDYWGQGTQVTLSS”, the “polyreactivity (PSR sort gate)” value was “low polyreactivity”.

With “QVQLVESGGGLVQAGGSLRLSCAASGRTFTHYAMGWYRQAPGKERELVAAISGRGGNTYYADSVKGRFTISRDNAKNTVYLQMNSLKPEDTAVYYCNTAYVAKGYGYWGQGTQVTVSS”, the “polyreactivity (PSR sort gate)” value was “high polyreactivity”.

Take “QVQLVESGGGLVQAGGSLRLSCAASGRTFTHYAMGWYRQAPGKERELVASISDGGRTHYADSVKGRFTISRDNAKNTVYLQMNSLKPEDTAVYYCATDRYPTRRYDYWGQGTQVTVSS”: the “polyreactivity (PSR sort gate)” value is given as “low polyreactivity”.

In the case of “QVQLVESGGGLVQAGGSLRLSCAASGRTFTIYAMGWYRQAPGKERELVAAISSSSGSTYYADSVKGRFTISRDNAKNTVYLQMNSLKPEDTAVYYCAARTTYRSSKRYGYWGQGTQVTVSS”, the “polyreactivity (PSR sort gate)” value is given as “high polyreactivity”.

Turning to “QVQLVESGGGLVQAGGSLRLSCAASGRTFTKYAKGWYRQAPGKERELVAAISNSGGSTFYADSVKGRFTISRDNAKNTVYLQMNSLKPEDTAVYYCAVDLGDTQYVPFDYWGQGTQVTVSS”, the “polyreactivity (PSR sort gate)” value is on record as “low polyreactivity”.

In the case of “QVQLVESGGGLVQAGGSLRLSCAASGRTFTPYTMGWYRQAPGKEREFVAAITFRGGSTYYADSVKGRFTLSRDNAKNTVYLQMNSLKPEDTAVYYCNARGHGGWGTSMYYWGQGTQVTVSS”, the “polyreactivity (PSR sort gate)” value is reported as “high polyreactivity”.

Take “QVQLVESGGGLVQAGGSLRLSCAASGRTFTRYAMGWSRQAPGKERELVAAITSTGSTYYADSVKGRFTISRDNAKNTVYLQMNSLKPEDTAVYYCNKVGIRYYYGYDYWGQGTQVTVSS”: the “polyreactivity (PSR sort gate)” value was “high polyreactivity”.

As to “QVQLVESGGGLVQAGGSLRLSCAASGRTFTRYSMGWYRQAPGKERELVATINSSGDRTYYADSVKGRFTISRDNAKNTVYLQMNSLKPEDTAVYYCAKRWSPYLYGYWGKGTQVTVSS”, the “polyreactivity (PSR sort gate)” value is reported as “high polyreactivity”.

With “QVQLVESGGGLVQAGGSLRLSCAASGRTFTRYVMGWYRQAPAKEREVVAAISSSGGTYYADSVKGRFTISRDNAKNTVYLQMNSLKPEDTAVYYCAVGSKLSRSYGYYYWGQGTQVTVSS”, the “polyreactivity (PSR sort gate)” value was “high polyreactivity”.

As for “QVQLVESGGGLVQAGGSLRLSCAASGRTFTSNAMRWYRQEPGNERELVAAISNRGTRTYYADSVKGRFTISRDNAKNTVYLQMHILKPEETAVYYCAASERDQRFKHYYWGLGTQVTVSS”, the “polyreactivity (PSR sort gate)” value is listed as “high polyreactivity”.

Take “QVQLVESGGGLVQAGGSLRLSCAASGRTFTSYGMGWYRPEPGKERELVAAITRSTGGTYYADSVKGRFTISRDHAKNTVYLQMNSLKPEDTAVYYCNTGPLYSPFDYWGQGTQVTVSS”: the “polyreactivity (PSR sort gate)” value is reported as “low polyreactivity”.

For “QVQLVESGGGLVQAGGSLRLSCAASGRTFTTYAMGWYRQSPGKERELVAAISGSGGSTYYADSVKGRFTISRDNAKNTVYLQMNSLKPEDTAVYYCATAYYYHGGYYYPYDDYWGQGTQVTVSS”, the “polyreactivity (PSR sort gate)” value was “low polyreactivity”.

For “QVQLVESGGGLVQAGGSLRLSCAASGRTFTVNAMGWSRQAPGKERELVAAISTSTGRTYYADSVKGRFTISRDNAKNTVYLQMNSLKPEDTAVYYCAAQSPYRGYYYTYYLYDYWGQGTQVTVSS”, the “polyreactivity (PSR sort gate)” value was “high polyreactivity”.

Regarding “QVQLVESGGGLVQAGGSLRLSCAASGRTFTVNPMGWYRQAPGKERELVAAITSGGTTKYADSVKGRFTISRDNAKNTVYLQMNSLKPEDTAVYYCAARVYFPVQYPWFYFEYGYWGQGTQVTVSS”, the “polyreactivity (PSR sort gate)” value is given as “high polyreactivity”.

Turning to “QVQLVESGGGLVQAGGSLRLSCAASGRTFTVYTMGWYRQAPGKERELVAVISTGGRTYYADSVKGRFTISRDNAKNTVYLQMNSLNPEDTAVYYCAAKFTREYYWGQGTQVTVSS”, the “polyreactivity (PSR sort gate)” value is “high polyreactivity”.

For the sequence “QVQLVESGGGLVQAGGSLRLSCAASGRTFTYNAMGWYRQAPGKERELDAAISWNGGRTYYADSVKGRFTISRDNAKNTVYLQMNSLKPEDTAVYYCAARSPKDSYSIQRYYWGQGTQVTVSS”, the “polyreactivity (PSR sort gate)” value is reported as “high polyreactivity”.

For “QVQLVESGGGLVQAGGSLRLSCAASGRTFTYNTMGWYRQAPGKERELVAAISSSGGSTYYADSVKGRFTISRDNAKNTVYLKMNCLKPEDTAVYYCAKRYFSSSRYYYWGQGTKVTVSS”, the “polyreactivity (PSR sort gate)” value is on record as “high polyreactivity”.

Turning to “QVQLVESGGGLVQAGGSLRLSCAASGRTFTYYAMGWSRQAPGKERECVSAISSTGTSTYYADSVKGRFTISRDNAKNTVYLQMNSLKPEDTAVYYCNARVATYRLHSKFYYWGQGTQVTVSS”, the “polyreactivity (PSR sort gate)” value is recorded as “high polyreactivity”.

As to “QVQLVESGGGLVQAGGSLRLSCAASGRTFTYYAMGWYRQAPGKERELVAAISSRGGSTYYADSVKGRFTISRDNAKNTVYLQMNSLNPEDTAVYYCAAVHRFTRASRWPDFDYWGQGTQVTVSS”, the “polyreactivity (PSR sort gate)” value is on record as “high polyreactivity”.

Regarding “QVQLVESGGGLVQAGGSLRLSCAASGRTFTYYAMGWYRQAPGKERELVAAISSTGGSTYYADSVKGRFTISRDNAKNTVTLQMNSLKPEDTAVYYCNVAFDDFDYWGQGTQVTVSS”, the “polyreactivity (PSR sort gate)” value is listed as “low polyreactivity”.

Regarding “QVQLVESGGGLVQAGGSLRLSCAASGRTFTYYAMGWYRQAPGKERELVAAITSGGRTYYADSVKGRFTISRDNAKNTVYLQMKSLKPEDTAVYYCAARRIRDYYRSYDYWGQGTQVTVSS”, the “polyreactivity (PSR sort gate)” value is “high polyreactivity”.

Take “QVQLVESGGGLVQAGGSLRLSCAASGRTFTYYGMGWYRQAPGKERELVAAITERGDSTYYADSVKGRFTISRDNAKNTVYLQMNSLKPEDTAVYYCAAAEHLTRPSSPTQDGDHWGQGTQVTVSS”: the “polyreactivity (PSR sort gate)” value is on record as “low polyreactivity”.

Regarding “QVQLVESGGGLVQAGGSLRLSCAASGRTFTYYSMGWYRQAPGKERELVAAISSGGRTNYADSVKGRFTISRDNAKNTVYLQMNSLKPEDTAVYYCAADGTTFRNRYYFHRMDFWGQGTQVTVSS”, the “polyreactivity (PSR sort gate)” value is on record as “high polyreactivity”.

In the case of “QVQLVESGGGLVQAGGSLRLSCAASGRTFVANAMGWYRQAPGKEREFVAAITGGDSTYYADSVKGRFTISRDNAKNTVYLQMNSLKPEDTAVYYCAAPYNFWNFFDLIYVWDGYDYWGQGTQVTVSS”, the “polyreactivity (PSR sort gate)” value is reported as “low polyreactivity”.
